# Laboratory results from patent publication US20230287369A1, “A NEW, NON-SPECIFIC THERMOLABILE NUCLEASE ACTIVE AT LOW TEMPERATURE, IN WIDE PH RANGE AND HIGH CONCENTRATION IN SALTS” (Blirt S.A., priority 2019, published 2023).
# B1: PPR nuclease: non-specific nuclease that is the subject matter of the invention of SEQ ID NO: 2; thermolabile, recombinant, produced in E. coli (protein)
# chain: MKYLLPTAAAGLLLLAAQPAMAASMEHHHHHHGSENLYFQSAPPSSFSKAKRLAVEIYQDHPTSFYCGCAITWQGKKGLPDLASCGYEVRKQEKRANRIEWEHVVPAENFGRAFVEWREGHPQCVNSKGKAYKGRSCATKMNPTYRSMQADLHNLTPAVGEVNGDRSNYAFLPWNGNNGAFYGQCDMKIDFKNRRADPPEQSRGAIARTYLYMNQEYKMALSSQQRQLMEAWNRQYPISTWECERDRRIANIQDNHNSFVLQACKKAGY
# Assays:
# Assay type in all cases: biochemical
# [1] = system: herring sperm genomic DNA; experiment: Nucleolytic activity of PPR, HL-SAN, Benzonase nucleases in buffers of varied salt concentration and pH
# Method: FIG. 6—showing the comparison of nucleolytic activity values of PPR, HL-SAN and Benzonase® nucleases in buffers of various NaCl concentrations (0, 250, 500 mM), in pH 7.0, 8.0, 9.0, respectively. The remaining reaction conditions are as follows: temperature 22° C., 50 mM Tris, 20 mM MgCk (5 mM MgCk used for Benzonase®). […] The advantage of PPR over the HL-SAN nuclease, whose characteristics are the most similar, increases in correlation with decreasing pH (7.0-8.0).
# (§1) In order to determine PPR nuclease specific activity serial dilutions of the enzyme are incubated in a reaction buffer containing 20 mM Tris-HCl (pH 8.0), 20 mM MgCh and 100 pg of herring sperm genomic DNA of 300 m ? volume at 37° C. for 30 min. The reaction is stopped by adding 300 m ? 4% solution of perchloric acid to 2% final concentration and sample incubation on ice for 60 min. As a control, 100 pg DNA is incubated without the addition of nuclease. Afterwards, the samples are centrifuged for 10 minutes until separation of the precipitate of non-degraded DNA. The content of free nucleotides and oligonucleotide fragments smaller than 10 bp is determined in supernatant by measuring absorbance at 260 nm wavelength. 1 U nuclease activity is determined as enzyme quantity causing increase of absorbance in the studied sample at 260 nm wavelength of 1.0 within 30 minutes of reaction at 37° C. […]
# [2] = system: herring sperm genomic DNA; experiment: Nucleolytic activity of PPR, HL-SAN, Benzonase nucleases in DMEM medium
# Method: FIG. 7—showing the comparison of values of the PPR, HL-SAN and Benzonase® nucleases' nucleolytic activities in DMEM medium, commonly used for mammalian in vitro cell culture, in which recombinant proteins, virus vectors and other biological therapeutics are produced.
# (§2) In order to determine PPR nuclease specific activity serial dilutions of the enzyme are incubated in a reaction buffer containing 20 mM Tris-HCl (pH 8.0), 20 mM MgCh and 100 pg of herring sperm genomic DNA of 300 m ? volume at 37° C. for 30 min. The reaction is stopped by adding 300 m ? 4% solution of perchloric acid to 2% final concentration and sample incubation on ice for 60 min. As a control, 100 pg DNA is incubated without the addition of nuclease. Afterwards, the samples are centrifuged for 10 minutes until separation of the precipitate of non-degraded DNA. The content of free nucleotides and oligonucleotide fragments smaller than 10 bp is determined in supernatant by measuring absorbance at 260 nm wavelength. 1 U nuclease activity is determined as enzyme quantity causing increase of absorbance in the studied sample at 260 nm wavelength of 1.0 within 30 minutes of reaction at 37° C.
# Determination of the nucleolytic activity of PPR, HL-SAN and Benzonase® nucleases are performed as described in Example 4 at various temperatures: 6° C., 22° C. and 37° C. but instead of a reaction buffer DMEM medium (commonly used in cultures of mammalian cells, e.g. CHO, HEK, for the production of recombinant proteins and virus vectors) is used. […] At 37° C. […] The activity for every enzyme in conditions recommended by the manufacturer was assumed as 100% activity.
# [3] = system: herring sperm genomic DNA; experiment: Nucleolytic (specific) activity of PPR nuclease, modified Kunitz's test: effect of pH, temperature and Mg2+
# Method: FIG. 2—showing pH influence on PPR nucleolytic activity depending on NaCl salt concentration. Measurement using modificated Kunitz's test, conditions: 20 mM MgCh, temperature of 22° C.
# FIG. 3—showing temperature and high salts (500 mM NaCl+100 mM MgCL) influence on PPR nucleolytic activity. Measurement using modificated Kunitz's test.
# FIG. 4—showing influence of Mg^2, ions on PPR nucleolytic activity in selected pH and temperature conditions. Maximum PPR activity is obtained at 50-150 mM concentration at 37° C. in a pH 8.0 buffer.
# as §2
# In order to determine optimal pH for enzyme nucleolytic activity reaction is conducted as described in Example 4. The solutions of pH 6.0-10.0 with 1 U enzyme in reaction mixtures containing 0, 250, 500 mM NaCl, respectively.
# The determination of the optimal temperature for enzyme nucleolytic activity reaction is performed as described in Example 4 at various temperatures from 6° C. to 45° C. with 1 U enzyme in the reaction mixture containing 50 mM Tris, pH 8.0 and variable concentrations of MgCh (5 mM and 100 mM). […] It needs to be highlighted that in these conditions 100% of standard activity may be obtained in refrigerated conditions at 6° C., by applying the relevant salt concentration: NaCl (500 mM) and MgCh (100 mM).
# To determine the effects of Mg^2+ ion concentration on PPR nucleolytic activity reaction is performed as described in Example 4 in solutions of varied content of Mg^2+ ions; 5 mM to 200 mM with 1 U enzyme in the reaction mixture. […] In all observed ranges of MgCh (5-200 mM) PPR concentrations show high specific activity.
# [4] = system: herring sperm genomic DNA; experiment: Nucleolytic activity of PPR, HL-SAN, Benzonase nucleases in PBS and TBS buffers; details: PBS, TBS and TBS with 500 mM NaCl; 6° C., 22° C. and 37° C.
# Method: FIG. 8—showing the comparison of values of the PPR, HL-SAN and Benzonase® nucleases' nucleolytic activities in buffers with similar physiological salt concentration (PBS and TBS) with the addition of 500 mM NaCl, commonly used in the methodology of recombinant protein purification.
# as §1
# [5] = system: pUC19 plasmid DNA; experiment: Effects of potential inhibitors (salts, urea, imidazole) on PPR nucleolytic activity
# Method: (§3) In order to determine PPR nuclease nucleolytic activity serial dilutions of the enzyme are incubated in a reaction buffer containing 20 mM Tris-HCl (pH 8.0), 20 mM MgCb and 1 pg pUC19 plasmid DNA of 20 m ? volume for 10 min. The reaction is stopped by adding 5 m ? 25 mM DTT solution to a final concentration of 5 mM and the sample is heated to 55° C. for 10 min. As a control, 1 pg of pUC19 plasmid DNA is incubated without the addition of nuclease. Subsequently, the samples are loaded onto a 1% agarose gel and DNA separation is performed in gel at 130 voltage for 40 min. The remaining, nondegraded DNA in gel is stained with ethidium bromide and documented by taking a photography of the gel. 1 U activity is determined as the enzyme quantity essential for total degradation of 1 pg of pUC19 plasmid DNA in 10 min. at 37° C.
# as §2
# To determine the scope of enzyme tolerance to popular ion components used in the preparation of recombinant proteins, present in the reaction buffer, a nucleolytic reaction is performed as described in Example 4 in solutions of various amounts of individual potential inhibitors: NaCl, urea, ammonium sulphate, imidazole. The PPR nuclease retains high nucleolytic activity in the presence of increased concentrations of tested substances, as shown in Table 1.
# [6] = system: pUC19 plasmid DNA; experiment: Thermal inactivation of PPR enzymatic activity in the presence of DTT, plasmid DNA degradation on agarose gel; details: incubation for 15 minutes in the presence of 1-5 mM DTT
# Method: FIG. 5—showing PPR inactivation in various temperature conditions in the presence of 5 mM DTT. Complete PPR inactivation is obtained at 52° C.
# as §3
# To determine the parameters of PPR nuclease inactivation series of 0.2 ml test probes for PCR are prepared containing 100 U PPR in a 50 m ? reaction buffer containing 5 mM DTT, as described in Example 4A, excluding pUCIO plasmid DNA. Afterwards, the probes are incubated for 15 minutes at relevant temperatures and then for 5 minutes on ice. […] The degree of plasmid DNA degradation in the trials is analyzed on an agarose gel.
molecule,measurement,setting,value
B1,nucleolytic activity compared with the other tested nucleases,"[1]; 250 and 500 mM NaCl, pH 7.0, 8.0 and 9.0, 22° C., 50 mM Tris, 20 mM MgCl2",highest nucleolytic activity of all tested nucleases
same,nucleolytic activity compared with HL-SAN and Benzonase,"[1]; lower pH (7.0, 8.0) and ambient temperature (22° C.)",significantly more active
same,nucleolytic activity relative to Benzonase nuclease,[2]; 37° C.,six times more active
same,nucleolytic activity compared with the other tested enzymes,"[2]; all tested temperatures (6° C., 22° C., 37° C.)",highest nucleolytic activity of all tested enzymes
same,nucleolytic activity relative to HL-SAN and Benzonase,[2]; refrigerated conditions (6° C.) and ambient temperature (22° C.),approx three times more active
same,pH of highest nucleolytic activity,"[3]; 500 mM NaCl, tested pH 6.0-10.0 at 0, 250, 500 mM NaCl, 20 mM MgCl2, 22° C., 1 U enzyme",8.0
same,nucleolytic activity over tested temperature range,"[3]; 6° C. to 45° C., 50 mM Tris, pH 8.0",maintains nucleolytic activity in the whole range of the tested temperatures
same,MgCl2 concentration range with high specific activity / enzyme active,[3]; MgCl2,5 to 200 mM
same,temperature of highest nucleolytic activity,"[3]; NaCl (500 mM) and MgCl2 (100 mM), 50 mM Tris, pH 8.0, tested 6° C. to 45° C.",37 °C
same,Mg2+ concentration of highest nucleolytic activity,[3]; pH 6.5,20 mM
same,optimum Mg2+ concentration range for nucleolytic activity,"[3]; pH 6.5 buffer, ambient temperature (22° C.)",20 to 50 mM
same,Mg2+ concentration of highest nucleolytic activity,[3]; pH 8.0,150 mM
same,optimum Mg2+ concentration range for nucleolytic activity,"[3]; pH 8.0 buffer, 37° C.",50 to 150 mM
same,nucleolytic activity relative to standard activity,"[3]; refrigerated conditions at 6° C., NaCl (500 mM) and MgCl2 (100 mM)",100 % of standard activity
same,nucleolytic activity compared with the other tested enzymes,[4],highest nucleolytic activity of all tested enzymes
same,Non-inhibiting concentration,[5]; Ammonium sulphate,0 to 200 mM
same,Non-inhibiting concentration,[5]; Imidazole,0 to 400 mM
same,Non-inhibiting concentration,[5]; NaCl/KCl,0 to 1400 mM
same,Non-inhibiting concentration,[5]; Urea,0 to 6000 mM
same,temperature of irreversible inactivation,[6],52 °C
